Laboratory results from publication PMC13328618, “Heritable immunization of mice against Lyme disease enables ecological disease prevention” (Nature Communications, 2026).

Tests used:
[1] = target: recombinant outer surface protein A (rOspA) of Borrelia burgdorferi (Borrelia burgdorferi) (UniProt P0CL66)
[2] = target: T1, biotinylated OspA protein (Borrelia burgdorferi, UniProt P0CL66, biotin (site not stated)); assay: BLI; Octet Red96; biotinylated OspA immobilised on streptavidin biosensors; antibody 3.7-300 nM, 180 s association, 600 s dissociation in PBST with 0.1% bovine serum albumin; global fitting; conditions: both partners purified
T1 construct: outer surface protein A (OspA), Borrelia burgdorferi; biotinylated for capture on streptavidin biosensors; May be the GenScript rOspA after biotinylation; also called biotinylated OspA proteins

[3] = target: T2, recombinant outer surface protein A (rOspA) of Borrelia burgdorferi (Borrelia burgdorferi, UniProt P0CL66); assay: ELISA; plates coated with 5 µg/mL rOspA; supernatants of transfected Lenti-X 293T cells 72 h after transfection; detection with mouse IgG2b ELISA kit; conditions: one partner purified
T2 construct: outer surface protein A (OspA), Borrelia burgdorferi; recombinant; source: produced by GenScript

[4] = target: T2, recombinant outer surface protein A …; assay: ELISA; plates coated with rOspA at 5 µg/mL; mouse serum applied; detection with IgG ELISA detection kit; purified LA-2 IgG2a as standard; conditions: one partner purified

T1 sequence (P0CL66 17-273): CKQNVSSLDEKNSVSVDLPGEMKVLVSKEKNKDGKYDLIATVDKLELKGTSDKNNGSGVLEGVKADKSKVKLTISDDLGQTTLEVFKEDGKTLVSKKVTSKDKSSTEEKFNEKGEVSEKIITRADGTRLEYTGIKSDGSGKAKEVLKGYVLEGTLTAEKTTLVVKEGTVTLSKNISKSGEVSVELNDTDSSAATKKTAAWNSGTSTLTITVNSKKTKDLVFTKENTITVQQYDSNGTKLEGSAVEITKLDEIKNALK
T2 sequence (P0CL66 17-273): as above
recombinant outer surface protein A (rOspA) of Borrelia burgdorferi (Borrelia burgdorferi), sequence (P0CL66 17-273): as above

LA-2 scFv-albumin fusion protein expressed in Rosa26-targeted mice
xenodiagnosis: engineered (heterozygous) mice free of infection, by spirochetes in larval ticks fed 21 days after challenge with 10 B. burgdorferi-infected nymphs [1]: 80%

B1: full-length LA-2 IgG2a (antibody, V domains shown)
VH: QIQLVQSGPELKKPGETVKISCKASGYTFTDYSMYWVKQAPGKGLKRMGWINTETGEPTYADDFKGRFALSLDTSASTAYLHISNLKNEDTATYFCARGLDSWGQGTSVTVSS
VL: DIQMTQSPSSLSATLGGKVTITCKASQDINKYIAWYQHKPGKGPRLLIHYTSTLQPGNPSRFSGSGSGRDYSFSISNLEAEDIAIYYCLQYDNLQRTFGGGTKVEIK
notes: LA-2 heavy-chain variable region; mouse IgG2a heavy-chain constant region; LA-2 light-chain variable region; light-chain constant region; IgG2a; plasmid constructed by GenScript; source: Expi293F, transfected, purified (Protein A-Sepharose 4B)
binding result [2]: binds

B2: LA-2 scFv-Fc with the top-performing linker … (Fc fusion)
VH: B1 VH
VL: B1 VL
notes: LA-2 heavy-chain variable region, as the VH of m3; linker between the heavy and light variable regions; LA-2 light-chain variable region, as the VL of m3; source: Lenti-X 293T, transfected (PEI), in supernatant
binding result [3]: binds

B3: full-length LA-2 monoclonal antibody expressed in liver-specific knock-in mice (antibody, V domains shown)
VH: B1 VH
VL: B1 VL
notes: LA-2 heavy-chain variable region, as the VH of m3; mouse IgG2a heavy-chain constant region; LA-2 light-chain variable region, as the VL of m3; light-chain constant region; Heavy and light chains are made from one transcript with a T2A element between them; residues of T2A may remain on the chains; also called LA-2 antibodies; source: transgenic Mus musculus (knock-in proximal to the albumin …)
binding result [4]: binds

B4: LA-2 scFv-Fc with Vh-(G4S)3-Vl linker (Fc fusion)
VH: B1 VH
VL: B1 VL
notes: LA-2 heavy-chain variable region, as the VH of m3; flexible (G4S)3 linker, printed as (G4S)3; LA-2 light-chain variable region, as the VL of m3; Cloned into a modified pcDNA3.4 vector; also called scFv with a Vh-(G4S)3-Vl linker; source: Expi293F, transfected, purified (Protein A-Sepharose 4B)
binding result [2]: binds
